Measured values published in article PMC7586039.

Molecular target: HPV16 pseudovirions (human papillomavirus type 16) (UniProt P03101)

| Substance | IC50 of inhibition of HPV16 PsV infection of HeLa cells (PsV pretreated with the defensin) [µM] |
| --- | --- |
| RTD-4 (from UniProt P82270 65-76) (peptide) | 101 |
| Rhesus Theta Defensin-1 (from UniProt P82270 65-76; P82271 65-76) (peptide) | 14 |
| α-defensin HD5 (peptide) | 26 |
